Key:
[1] = molecular target: T1, monoclonal antibody 231-7; experiment: competitive ELISA; rFVIIa competes with biotinylated plasma-derived FVII for adsorbed MoAb 231-7
T1 construct: Conformation-sensitive antibody to the FVII EGF-1 domain; also called MoAb231-7
Experimental: Following four washes with TBS-T w/o BSA containing 1 M NaCl, 100 μl streptavidin-alkaline phosphatase (1:25,000 dilution in TBS-T+BSA) was added for 1 hr, RT. After an additional four washes with TBS-T w/o BSA containing 1M NaCl, the colourimetric reaction was developed with 100 μl of 1 mg/ml p-nitrophenylphosphate in diethanolamine buffer (10% diethanolamine, 0.5 mM MgCl₂, pH 9.8). The reaction was stopped after 60 minutes by the addition of 25 μl of 0.5M EDTA to each well.

[2] = molecular target: T2, plasma-derived human FVII (Enzyme Research Labs) (human, UniProt P08709 61-466); experiment: surface plasmon resonance (BIAcore); sTF captured by immobilized anti-TF antibody, FVII injected
T2 construct: mature; also called pdFVII; Standard FVII
T2 sequence (looked up): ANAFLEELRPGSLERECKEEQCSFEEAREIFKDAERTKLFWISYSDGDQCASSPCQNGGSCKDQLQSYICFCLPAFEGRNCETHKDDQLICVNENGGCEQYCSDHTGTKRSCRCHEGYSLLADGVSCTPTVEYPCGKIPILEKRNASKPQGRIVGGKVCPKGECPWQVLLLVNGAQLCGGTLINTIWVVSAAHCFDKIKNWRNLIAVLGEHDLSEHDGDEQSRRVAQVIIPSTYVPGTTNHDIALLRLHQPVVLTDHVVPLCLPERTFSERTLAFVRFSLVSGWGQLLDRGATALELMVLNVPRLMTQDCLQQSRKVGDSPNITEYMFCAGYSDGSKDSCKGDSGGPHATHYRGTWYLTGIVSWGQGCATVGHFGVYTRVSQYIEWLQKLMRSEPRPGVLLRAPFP
Description: An anti-TF antibody was immobilized on the BIAcore flow cell at high density and subsequently reacted with recombinant sTF. […] Data from reference cells containing the same amount of anti-TF antibody but no sTF were subtracted to correct for non-specific binding. […]

B1: rFVIIa(wt)-FFR (enzyme, human)
chain 1: ANAFLEELRPGSLERECKEEQCSFEEAREIFKDAERTKLFWISYSDGDQCASSPCQNGGSCKDQLQSYICFCLPAFEGRNCETHKDDQLICVNENGGCEQYCSDHTGTKRSCRCHEGYSLLADGVSCTPTVEYPCGKIPILEKRNASKPQGR
chain 2: IVGGKVCPKGECPWQVLLLVNGAQLCGGTLINTIWVVSAAHCFDKIKNWRNLIAVLGEHDLSEHDGDEQSRRVAQVIIPSTYVPGTTNHDIALLRLHQPVVLTDHVVPLCLPERTFSERTLAFVRFSLVSGWGQLLDRGATALELMVLNVPRLMTQDCLQQSRKVGDSPNITEYMFCAGYSDGSKDSCKGDSGGPHATHYRGTWYLTGIVSWGQGCATVGHFGVYTRVSQYIEWLQKLMRSEPRPGVLLRAPFP
modifications: active site covalently modified with the peptide chloromethylketone FFRck
notes: range 1-152;range 153-406; also called rFVIIa(wt)-FFRck; rFVIIai(wt)
Relative Increase in Affinity (relative to rFVIIa (wt)) [1]: 1.4 fold

B2: rFVIIa(wt)-DEGR (enzyme, human)
chain 1: ANAFLEELRPGSLERECKEEQCSFEEAREIFKDAERTKLFWISYSDGDQCASSPCQNGGSCKDQLQSYICFCLPAFEGRNCETHKDDQLICVNENGGCEQYCSDHTGTKRSCRCHEGYSLLADGVSCTPTVEYPCGKIPILEKRNASKPQGR
chain 2: IVGGKVCPKGECPWQVLLLVNGAQLCGGTLINTIWVVSAAHCFDKIKNWRNLIAVLGEHDLSEHDGDEQSRRVAQVIIPSTYVPGTTNHDIALLRLHQPVVLTDHVVPLCLPERTFSERTLAFVRFSLVSGWGQLLDRGATALELMVLNVPRLMTQDCLQQSRKVGDSPNITEYMFCAGYSDGSKDSCKGDSGGPHATHYRGTWYLTGIVSWGQGCATVGHFGVYTRVSQYIEWLQKLMRSEPRPGVLLRAPFP
modifications: active site covalently modified with the peptide chloromethylketone DEGRck
notes: range 1-152;range 153-406; also called rFVIIa(wt)-DEGRck; rFVIIai(wt)
Relative Increase in Affinity (relative to rFVIIa (wt)) [1]: 2.8 fold

B3: recombinant soluble human tissue factor (receptor, UniProt P13726 33-251, looked up)
chain: SGTTNTVAAYNLTWKSTNFKTILEWEPKPVNQVYTVQISTKSGDWKSKCFYTTDTECDLTDEIVKDVKQTYLARVFSYPAGNVESTGSAGEPLYENSPEFTPYLETNLGQPTIQSFEQVGTKVNVTVEDERTLVRRNNTFLSLRDVFGKDLIYTLYYWKSSSSGKKTAKTNTNEFLIDVDKGENYCFSVQAVIPSRTVNRKSTDSPVECMGQEKGEFRE
notes: extracellular domain; It was captured on the BIAcore chip by an immobilized anti-TF antibody; also called sTF; soluble human TF
Kd [2]: 29 nM
